Experimental data: patent US20250161440A1 (ABCENTRA, published 2025)

Target: oxidized LDL (oxLDL) (UniProt P04114 28-4563, limits assumed, oxidized); the kind of oxidation used in the in vitro assay is not stated (the filing says in general that oxidized LDL may carry malondialdehyde groups on lysines and histidines, or be oxidized by …)
Test: cell-based or functional assay

Sequence of oxidized LDL (oxLDL) (P04114 28-4563 limits assumed): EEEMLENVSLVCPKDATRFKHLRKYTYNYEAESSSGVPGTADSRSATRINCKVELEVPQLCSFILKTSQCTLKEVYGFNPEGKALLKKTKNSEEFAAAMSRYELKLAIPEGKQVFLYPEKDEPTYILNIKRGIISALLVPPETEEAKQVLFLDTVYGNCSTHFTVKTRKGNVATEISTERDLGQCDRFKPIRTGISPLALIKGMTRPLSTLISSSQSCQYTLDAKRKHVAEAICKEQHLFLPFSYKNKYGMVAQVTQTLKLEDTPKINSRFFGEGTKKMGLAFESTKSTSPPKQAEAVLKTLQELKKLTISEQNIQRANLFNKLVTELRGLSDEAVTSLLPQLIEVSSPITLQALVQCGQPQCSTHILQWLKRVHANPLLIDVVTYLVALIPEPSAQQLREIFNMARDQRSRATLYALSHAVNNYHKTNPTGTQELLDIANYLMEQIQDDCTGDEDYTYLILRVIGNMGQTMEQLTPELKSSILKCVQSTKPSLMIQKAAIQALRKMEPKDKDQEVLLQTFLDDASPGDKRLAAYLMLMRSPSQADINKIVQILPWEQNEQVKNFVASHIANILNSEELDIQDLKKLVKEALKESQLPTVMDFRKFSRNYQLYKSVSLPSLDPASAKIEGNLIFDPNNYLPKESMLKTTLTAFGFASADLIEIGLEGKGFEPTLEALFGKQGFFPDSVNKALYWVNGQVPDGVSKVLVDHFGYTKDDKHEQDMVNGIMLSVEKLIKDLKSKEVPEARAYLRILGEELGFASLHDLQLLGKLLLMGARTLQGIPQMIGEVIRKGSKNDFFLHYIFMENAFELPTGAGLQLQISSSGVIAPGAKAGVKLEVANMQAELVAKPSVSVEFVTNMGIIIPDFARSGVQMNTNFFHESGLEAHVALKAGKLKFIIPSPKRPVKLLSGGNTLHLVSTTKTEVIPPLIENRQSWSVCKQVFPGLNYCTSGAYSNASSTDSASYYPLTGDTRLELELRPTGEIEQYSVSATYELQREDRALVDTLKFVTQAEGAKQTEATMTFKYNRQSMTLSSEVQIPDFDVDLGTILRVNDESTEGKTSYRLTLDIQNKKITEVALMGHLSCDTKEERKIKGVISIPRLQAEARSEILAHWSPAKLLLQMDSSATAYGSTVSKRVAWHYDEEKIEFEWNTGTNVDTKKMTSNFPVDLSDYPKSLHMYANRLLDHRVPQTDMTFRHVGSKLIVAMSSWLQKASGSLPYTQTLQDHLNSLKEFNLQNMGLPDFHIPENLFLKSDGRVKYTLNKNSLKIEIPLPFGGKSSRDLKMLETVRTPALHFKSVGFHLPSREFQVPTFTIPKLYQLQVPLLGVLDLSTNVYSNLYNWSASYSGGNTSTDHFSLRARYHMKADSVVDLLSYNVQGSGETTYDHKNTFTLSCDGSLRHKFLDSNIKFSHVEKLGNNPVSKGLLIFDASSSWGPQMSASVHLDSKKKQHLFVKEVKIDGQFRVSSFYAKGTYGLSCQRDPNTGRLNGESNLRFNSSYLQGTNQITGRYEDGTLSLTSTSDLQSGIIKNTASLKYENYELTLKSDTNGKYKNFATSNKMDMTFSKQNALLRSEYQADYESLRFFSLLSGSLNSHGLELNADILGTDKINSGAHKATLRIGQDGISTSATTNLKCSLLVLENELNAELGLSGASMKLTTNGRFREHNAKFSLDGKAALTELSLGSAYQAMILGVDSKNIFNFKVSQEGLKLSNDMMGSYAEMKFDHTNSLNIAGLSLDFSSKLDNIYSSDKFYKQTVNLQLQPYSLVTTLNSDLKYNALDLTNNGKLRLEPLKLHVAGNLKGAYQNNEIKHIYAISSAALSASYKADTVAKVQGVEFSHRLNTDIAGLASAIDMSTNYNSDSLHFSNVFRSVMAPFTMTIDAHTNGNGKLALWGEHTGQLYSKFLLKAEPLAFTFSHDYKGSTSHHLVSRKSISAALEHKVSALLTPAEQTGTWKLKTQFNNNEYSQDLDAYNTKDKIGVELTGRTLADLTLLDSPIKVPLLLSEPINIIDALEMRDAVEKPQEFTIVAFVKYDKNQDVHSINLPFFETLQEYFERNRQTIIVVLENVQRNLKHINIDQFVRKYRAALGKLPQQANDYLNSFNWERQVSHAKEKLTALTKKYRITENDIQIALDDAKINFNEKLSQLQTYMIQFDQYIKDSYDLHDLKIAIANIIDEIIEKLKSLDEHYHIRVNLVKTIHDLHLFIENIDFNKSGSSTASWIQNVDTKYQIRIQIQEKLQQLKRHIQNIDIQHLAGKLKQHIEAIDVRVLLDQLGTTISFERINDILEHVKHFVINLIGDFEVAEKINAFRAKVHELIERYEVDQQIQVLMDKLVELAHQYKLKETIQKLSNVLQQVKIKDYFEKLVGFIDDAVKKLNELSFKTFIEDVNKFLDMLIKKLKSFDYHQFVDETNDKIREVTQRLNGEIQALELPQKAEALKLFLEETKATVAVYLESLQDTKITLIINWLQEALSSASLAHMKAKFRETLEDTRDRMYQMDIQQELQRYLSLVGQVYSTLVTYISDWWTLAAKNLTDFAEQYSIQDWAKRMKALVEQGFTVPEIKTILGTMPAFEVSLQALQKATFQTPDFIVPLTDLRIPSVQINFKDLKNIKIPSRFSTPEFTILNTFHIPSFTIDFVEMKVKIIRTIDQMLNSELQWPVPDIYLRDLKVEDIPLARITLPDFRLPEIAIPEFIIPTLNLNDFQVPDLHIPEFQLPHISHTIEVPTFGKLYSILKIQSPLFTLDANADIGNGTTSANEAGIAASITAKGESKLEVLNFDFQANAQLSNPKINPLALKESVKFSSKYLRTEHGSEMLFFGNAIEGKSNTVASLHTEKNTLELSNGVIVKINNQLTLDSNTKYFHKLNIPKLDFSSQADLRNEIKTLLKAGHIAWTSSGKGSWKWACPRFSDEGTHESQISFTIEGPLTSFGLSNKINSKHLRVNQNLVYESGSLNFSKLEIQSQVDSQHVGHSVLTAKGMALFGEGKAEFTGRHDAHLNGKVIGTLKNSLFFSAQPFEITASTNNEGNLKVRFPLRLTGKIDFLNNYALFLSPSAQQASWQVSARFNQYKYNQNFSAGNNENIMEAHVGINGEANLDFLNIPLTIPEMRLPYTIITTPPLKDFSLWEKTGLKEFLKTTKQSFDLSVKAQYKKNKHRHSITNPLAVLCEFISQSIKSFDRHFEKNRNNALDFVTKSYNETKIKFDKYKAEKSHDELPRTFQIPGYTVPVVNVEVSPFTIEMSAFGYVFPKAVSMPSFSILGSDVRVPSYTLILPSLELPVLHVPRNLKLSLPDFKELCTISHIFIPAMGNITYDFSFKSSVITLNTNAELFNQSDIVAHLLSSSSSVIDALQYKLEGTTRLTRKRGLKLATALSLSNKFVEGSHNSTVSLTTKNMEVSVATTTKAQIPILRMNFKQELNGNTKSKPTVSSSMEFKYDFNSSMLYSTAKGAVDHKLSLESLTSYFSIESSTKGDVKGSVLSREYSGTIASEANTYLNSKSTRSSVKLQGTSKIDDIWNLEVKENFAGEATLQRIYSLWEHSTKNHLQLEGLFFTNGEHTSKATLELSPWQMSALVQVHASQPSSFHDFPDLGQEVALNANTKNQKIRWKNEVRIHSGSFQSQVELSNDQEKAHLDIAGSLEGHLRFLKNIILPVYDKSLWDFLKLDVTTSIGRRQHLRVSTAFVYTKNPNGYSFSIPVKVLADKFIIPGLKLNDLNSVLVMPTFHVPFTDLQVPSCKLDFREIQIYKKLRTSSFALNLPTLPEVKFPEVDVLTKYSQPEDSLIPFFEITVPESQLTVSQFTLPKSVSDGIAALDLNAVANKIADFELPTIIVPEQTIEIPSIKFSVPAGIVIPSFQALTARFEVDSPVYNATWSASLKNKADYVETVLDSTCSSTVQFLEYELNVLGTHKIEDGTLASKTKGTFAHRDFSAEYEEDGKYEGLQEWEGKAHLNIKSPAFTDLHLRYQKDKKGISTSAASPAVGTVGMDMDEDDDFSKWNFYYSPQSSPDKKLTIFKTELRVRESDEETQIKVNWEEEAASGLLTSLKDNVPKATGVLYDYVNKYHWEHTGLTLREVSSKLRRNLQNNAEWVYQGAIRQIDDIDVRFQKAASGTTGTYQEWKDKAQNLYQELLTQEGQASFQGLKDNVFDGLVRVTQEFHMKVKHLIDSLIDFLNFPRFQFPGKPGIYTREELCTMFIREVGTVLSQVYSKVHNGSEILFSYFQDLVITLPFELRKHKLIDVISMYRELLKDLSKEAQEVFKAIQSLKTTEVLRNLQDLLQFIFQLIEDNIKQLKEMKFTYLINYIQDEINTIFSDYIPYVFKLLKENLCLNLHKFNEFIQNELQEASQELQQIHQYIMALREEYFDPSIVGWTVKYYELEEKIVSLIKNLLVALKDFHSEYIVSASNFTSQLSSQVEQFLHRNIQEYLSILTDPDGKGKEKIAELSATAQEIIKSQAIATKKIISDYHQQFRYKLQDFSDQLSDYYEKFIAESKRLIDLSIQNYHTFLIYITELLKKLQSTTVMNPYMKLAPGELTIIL

B1: orticumab (antibody, human IgG1, lambda, V domains shown)
VH: EVQLLESGGGLVQPGGSLRLSCAASGFTFSNAWMSWVRQAPGKGLEWVSSISVGGHRTYYADSVKGRSTISRDNSKNTLYLQMNSLRAEDTAVYYCARIRVGPSGGAFDYWGQGTLVTVSS
VL: QSVLTQPPSASGTPGQRVTISCSGSNTNIGKNYVSWYQQLPGTAPKLLIYANSNRPSGVPDRFSGSKSGTSASLAISGLRSEDEADYYCASWDASLNGWVFGGGTKLTVLG
IC50 for MCP-1 inhibition: ~10 nM
